Where a chain is given by its changes, count along the chain named.
T1: NHERF3_3, Q5T2W1
T1 sequence (Q5T2W1 238-333, limits assumed, looked up): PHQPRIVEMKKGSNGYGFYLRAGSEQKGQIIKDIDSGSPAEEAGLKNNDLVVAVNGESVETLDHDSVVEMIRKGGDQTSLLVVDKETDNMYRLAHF

T2: RHPN1, Q8TCX5
T2 sequence (Q8TCX5 508-602, limits assumed, looked up): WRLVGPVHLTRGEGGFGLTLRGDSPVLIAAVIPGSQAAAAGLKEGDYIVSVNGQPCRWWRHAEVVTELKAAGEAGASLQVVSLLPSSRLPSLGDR

T3: LIN7B, Q9HAP6
T3 sequence (Q9HAP6 88-185, limits assumed, looked up): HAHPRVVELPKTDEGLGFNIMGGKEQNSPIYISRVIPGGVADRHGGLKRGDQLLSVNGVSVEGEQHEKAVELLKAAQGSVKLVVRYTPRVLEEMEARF

T4: HTRA3, P83110
T4 sequence (P83110 354-453, limits assumed, looked up): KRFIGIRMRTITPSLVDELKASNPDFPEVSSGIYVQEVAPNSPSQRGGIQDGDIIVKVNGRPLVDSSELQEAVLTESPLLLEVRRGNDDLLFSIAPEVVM

T5: APBA1_2, Q02410
T5 sequence (Q02410 742-832, limits assumed, looked up): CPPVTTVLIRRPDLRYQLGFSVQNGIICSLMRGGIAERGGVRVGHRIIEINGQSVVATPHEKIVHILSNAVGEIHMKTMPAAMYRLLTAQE

T6: SNTA1, Q13424
T6 sequence (Q13424 82-180, limits assumed, looked up): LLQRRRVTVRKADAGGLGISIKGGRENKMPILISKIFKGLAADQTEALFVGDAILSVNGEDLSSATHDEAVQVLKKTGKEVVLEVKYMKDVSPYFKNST

T7: DLG3_3, Q92796
T7 sequence (Q92796 374-475, limits assumed, looked up): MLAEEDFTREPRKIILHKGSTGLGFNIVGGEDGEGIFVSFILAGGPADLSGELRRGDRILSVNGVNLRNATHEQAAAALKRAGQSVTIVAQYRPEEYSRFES

T8: LIN7C, Q9NUP9
T8 sequence (Q9NUP9 88-185, limits assumed, looked up): T3 sequence (Q9HAP6 88-185, limits assumed, looked up) with A2S, D13E, V35I, V40I, Q65H, S79K, R89K, A96S


Legend:
Experiment in all cases: holdup assay
Design in all cases: key: below the threshold = too weak to quantify, mostly under pKd 3.1 to 4
Conditions in all cases: plain residues with an end cap or a label only (N-terminal biotin on a linker: ado-ado)
NHERF3_3, Q5T2W1 = molecular target: T1, NHERF3_3, Q5T2W1
LNX1_2, Q8TBB1 = molecular target: LNX1_2, Q8TBB1
Inadl_4, Q8NI35 = molecular target: Inadl_4, Q8NI35
GOPC, Q9HD26 = molecular target: GOPC, Q9HD26
DLG4_3, P78352 = molecular target: DLG4_3, P78352
MAGI2_3, Q86UL8 = molecular target: MAGI2_3, Q86UL8
DLG2_2, Q15700 = molecular target: DLG2_2, Q15700
MAST2, Q6P0Q8 = molecular target: MAST2, Q6P0Q8
FRMPD3, Q5JV73 = molecular target: FRMPD3, Q5JV73
RHPN1, Q8TCX5 = molecular target: T2, RHPN1, Q8TCX5
FRMPD2_1, Q68DX3 = molecular target: FRMPD2_1, Q68DX3
PARD3_3, Q8TEW0 = molecular target: PARD3_3, Q8TEW0
LIN7B, Q9HAP6 = molecular target: T3, LIN7B, Q9HAP6
HTRA3, P83110 = molecular target: T4, HTRA3, P83110
APBA1_2, Q02410 = molecular target: T5, APBA1_2, Q02410
SNTA1, Q13424 = molecular target: T6, SNTA1, Q13424
MAGI1_2, Q96QZ7 = molecular target: MAGI1_2, Q96QZ7
GORASP1, Q9BQQ3 = molecular target: GORASP1, Q9BQQ3
Inadl_1, Q8NI35 = molecular target: Inadl_1, Q8NI35
FRMPD2_2, Q68DX3 = molecular target: FRMPD2_2, Q68DX3
Inadl_6, Q8NI35 = molecular target: Inadl_6, Q8NI35
LNX1_3, Q8TBB1 = molecular target: LNX1_3, Q8TBB1
GRIP2_3, Q9C0E4 = molecular target: GRIP2_3, Q9C0E4
Inadl_10, Q8NI35 = molecular target: Inadl_10, Q8NI35
NHERF4_4, Q86UT5 = molecular target: NHERF4_4, Q86UT5
Inadl_8, Q8NI35 = molecular target: Inadl_8, Q8NI35
DLG3_3, Q92796 = molecular target: T7, DLG3_3, Q92796
MAGI3_2, Q5TCQ9 = molecular target: MAGI3_2, Q5TCQ9
LIN7C, Q9NUP9 = molecular target: T8, LIN7C, Q9NUP9
DLG1_1, Q12959 = molecular target: DLG1_1, Q12959
ARHGEF12, Q9NZN5-2 = molecular target: ARHGEF12, Q9NZN5-2
Chain of ARHGEF12, Q9NZN5-2 (Q9NZN5 other isoform, or with tags, fused parts or gaps): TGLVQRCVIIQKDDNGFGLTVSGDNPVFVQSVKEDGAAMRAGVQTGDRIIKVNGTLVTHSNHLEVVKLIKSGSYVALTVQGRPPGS

Chain of NHERF4_4, Q86UT5 (Q86UT5 464-550): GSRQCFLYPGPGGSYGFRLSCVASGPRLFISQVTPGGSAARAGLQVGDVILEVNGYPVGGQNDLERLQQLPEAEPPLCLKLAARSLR
Chain of FRMPD3, Q5JV73 (Q5JV73 12-100): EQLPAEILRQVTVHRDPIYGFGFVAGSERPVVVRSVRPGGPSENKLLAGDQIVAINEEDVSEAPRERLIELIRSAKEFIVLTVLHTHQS
Chain of MAGI1_2, Q96QZ7 (Q96QZ7 456-580): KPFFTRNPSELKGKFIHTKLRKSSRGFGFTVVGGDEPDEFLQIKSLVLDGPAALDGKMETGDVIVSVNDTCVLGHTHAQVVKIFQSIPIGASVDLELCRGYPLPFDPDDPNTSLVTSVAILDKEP
Chain of DLG4_3, P78352 (P78352 306-403): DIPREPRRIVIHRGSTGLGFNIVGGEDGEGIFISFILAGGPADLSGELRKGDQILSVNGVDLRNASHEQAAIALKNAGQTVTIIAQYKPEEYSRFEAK
Chain of Inadl_10, Q8NI35 (Q8NI35 1673-1763): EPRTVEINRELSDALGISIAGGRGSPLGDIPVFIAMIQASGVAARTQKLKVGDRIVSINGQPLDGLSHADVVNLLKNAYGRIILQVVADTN
Chain of Inadl_1, Q8NI35 (Q8NI35 113-229): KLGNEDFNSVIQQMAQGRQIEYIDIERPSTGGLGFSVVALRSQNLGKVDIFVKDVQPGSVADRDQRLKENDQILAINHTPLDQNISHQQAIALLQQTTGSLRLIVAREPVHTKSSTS
Chain of Inadl_6, Q8NI35 (Q8NI35 1058-1167): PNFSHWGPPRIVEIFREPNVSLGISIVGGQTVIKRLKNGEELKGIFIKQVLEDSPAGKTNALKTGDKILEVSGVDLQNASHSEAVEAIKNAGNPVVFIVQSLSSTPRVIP
Chain of MAGI2_3, Q86UL8 (Q86UL8 600-682): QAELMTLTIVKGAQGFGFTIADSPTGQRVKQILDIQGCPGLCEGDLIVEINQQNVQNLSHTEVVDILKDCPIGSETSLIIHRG
Chain of GRIP2_3, Q9C0E4 (Q9C0E4 238-339): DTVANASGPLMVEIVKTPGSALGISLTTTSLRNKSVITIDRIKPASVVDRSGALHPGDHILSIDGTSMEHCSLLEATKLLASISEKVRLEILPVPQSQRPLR
Chain of FRMPD2_2, Q68DX3 (Q68DX3 944-1038): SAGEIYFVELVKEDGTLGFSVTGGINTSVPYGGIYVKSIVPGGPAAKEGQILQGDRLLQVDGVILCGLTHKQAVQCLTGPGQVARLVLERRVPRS
Chain of MAGI3_2, Q5TCQ9 (Q5TCQ9 398-503): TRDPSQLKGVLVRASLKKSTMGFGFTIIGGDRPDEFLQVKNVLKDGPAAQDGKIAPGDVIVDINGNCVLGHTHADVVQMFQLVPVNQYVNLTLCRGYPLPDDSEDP
Chain of DLG2_2, Q15700 (Q15700 189-283): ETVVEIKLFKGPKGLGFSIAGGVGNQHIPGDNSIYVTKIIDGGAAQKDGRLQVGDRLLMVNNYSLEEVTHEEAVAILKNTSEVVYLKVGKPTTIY
Chain of LNX1_3, Q8TBB1 (Q8TBB1 500-596): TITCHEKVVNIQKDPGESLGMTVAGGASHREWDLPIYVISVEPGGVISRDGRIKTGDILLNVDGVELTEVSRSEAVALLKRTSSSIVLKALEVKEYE
Chain of PARD3_3, Q8TEW0 (Q8TEW0 582-685): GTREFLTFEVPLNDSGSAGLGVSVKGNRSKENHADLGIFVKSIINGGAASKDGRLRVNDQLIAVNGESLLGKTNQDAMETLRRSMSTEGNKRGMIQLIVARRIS
Chain of LNX1_2, Q8TBB1 (Q8TBB1 371-470): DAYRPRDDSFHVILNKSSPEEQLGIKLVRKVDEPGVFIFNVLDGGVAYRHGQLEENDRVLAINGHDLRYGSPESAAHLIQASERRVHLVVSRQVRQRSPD
Chain of MAST2, Q6P0Q8 (Q6P0Q8 1099-1202): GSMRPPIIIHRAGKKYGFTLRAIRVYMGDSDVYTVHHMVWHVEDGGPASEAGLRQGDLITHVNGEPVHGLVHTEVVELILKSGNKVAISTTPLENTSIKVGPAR
Chain of Inadl_8, Q8NI35 (Q8NI35 1425-1530): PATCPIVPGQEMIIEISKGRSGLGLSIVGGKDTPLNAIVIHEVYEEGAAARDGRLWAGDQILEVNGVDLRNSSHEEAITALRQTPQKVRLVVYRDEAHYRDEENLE
Chain of Inadl_4, Q8NI35 (Q8NI35 547-651): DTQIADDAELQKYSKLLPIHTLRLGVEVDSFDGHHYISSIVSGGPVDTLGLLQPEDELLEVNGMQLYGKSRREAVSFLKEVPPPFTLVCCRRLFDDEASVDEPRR
Chain of GORASP1, Q9BQQ3 (Q9BQQ3 1-208): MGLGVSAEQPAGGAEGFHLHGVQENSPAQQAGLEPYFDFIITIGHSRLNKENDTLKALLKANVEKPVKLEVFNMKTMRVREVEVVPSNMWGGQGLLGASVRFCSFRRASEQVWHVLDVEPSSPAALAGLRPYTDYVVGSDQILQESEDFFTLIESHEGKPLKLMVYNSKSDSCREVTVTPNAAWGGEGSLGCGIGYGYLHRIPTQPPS
Chain of FRMPD2_1, Q68DX3 (Q68DX3 770-861): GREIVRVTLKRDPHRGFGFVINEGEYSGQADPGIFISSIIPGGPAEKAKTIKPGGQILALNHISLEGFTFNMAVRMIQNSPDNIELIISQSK

Binder | pKd (NHERF3_3, Q5T2W1) | pKd (LNX1_2, Q8TBB1) | pKd (Inadl_4, Q8NI35) | pKd (GOPC, Q9HD26) | pKd (DLG4_3, P78352) | pKd (MAGI2_3, Q86UL8) | pKd (DLG2_2, Q15700) | pKd (MAST2, Q6P0Q8) | pKd (FRMPD3, Q5JV73) | pKd (RHPN1, Q8TCX5) | pKd (FRMPD2_1, Q68DX3) | pKd (PARD3_3, Q8TEW0) | pKd (LIN7B, Q9HAP6) | pKd (HTRA3, P83110) | pKd (APBA1_2, Q02410) | pKd (SNTA1, Q13424) | pKd (MAGI1_2, Q96QZ7) | pKd (GORASP1, Q9BQQ3) | pKd (Inadl_1, Q8NI35) | pKd (FRMPD2_2, Q68DX3) | further results
EFKQTSSFLV [JAM1, Q9Y624] | below the threshold | 4.26 | below the threshold | below the threshold | below the threshold | 3.54 | below the threshold | below the threshold | below the threshold | below the threshold | 3.75 | 3.75 | 3.88 | 4.16 | 3.5 | below the threshold | below the threshold | 4.37 | below the threshold | below the threshold | pKd (Inadl_6, Q8NI35): below the threshold; pKd (LNX1_3, Q8TBB1): below the threshold; pKd (GRIP2_3, Q9C0E4): below the threshold; pKd (Inadl_10, Q8NI35): below the threshold; pKd (NHERF4_4, Q86UT5): below the threshold; pKd (Inadl_8, Q8NI35): below the threshold; pKd (DLG3_3, Q92796): below the threshold; pKd (MAGI3_2, Q5TCQ9): below the threshold; pKd (LIN7C, Q9NUP9): below the threshold; pKd (DLG1_1, Q12959): below the threshold; pKd (ARHGEF12, Q9NZN5-2): below the threshold
DFKHTKSFII [JAM2, P57087] | below the threshold | below the threshold | below the threshold | below the threshold | below the threshold | below the threshold | below the threshold | below the threshold | below the threshold | below the threshold | 3.55 | 4.42 | 3.63 | 4.1 | below the threshold | below the threshold | below the threshold | 5.07 | below the threshold | below the threshold | pKd (Inadl_6, Q8NI35): below the threshold; pKd (LNX1_3, Q8TBB1): below the threshold; pKd (GRIP2_3, Q9C0E4): below the threshold; pKd (Inadl_10, Q8NI35): below the threshold; pKd (NHERF4_4, Q86UT5): below the threshold; pKd (Inadl_8, Q8NI35): below the threshold; pKd (DLG3_3, Q92796): below the threshold; pKd (MAGI3_2, Q5TCQ9): below the threshold; pKd (LIN7C, Q9NUP9): below the threshold; pKd (DLG1_1, Q12959): below the threshold; pKd (ARHGEF12, Q9NZN5-2): below the threshold
SQPLLVHDDV [KIT, P10721] | below the threshold | below the threshold | below the threshold | below the threshold | below the threshold | below the threshold | below the threshold | below the threshold | below the threshold | below the threshold | below the threshold | below the threshold | below the threshold | below the threshold | 3.54 | below the threshold | below the threshold | below the threshold | below the threshold | below the threshold | pKd (Inadl_6, Q8NI35): below the threshold; pKd (LNX1_3, Q8TBB1): below the threshold; pKd (GRIP2_3, Q9C0E4): below the threshold; pKd (Inadl_10, Q8NI35): below the threshold; pKd (NHERF4_4, Q86UT5): below the threshold; pKd (Inadl_8, Q8NI35): 4.94; pKd (DLG3_3, Q92796): below the threshold; pKd (MAGI3_2, Q5TCQ9): below the threshold; pKd (LIN7C, Q9NUP9): below the threshold; pKd (DLG1_1, Q12959): below the threshold; pKd (ARHGEF12, Q9NZN5-2): below the threshold
